From the supplement of paper PMC9170038

Tested on: MS2 coat protein
Test: apparent KD of MS2 coat protein; designed switch direction (-1 OFF switch, 1 ON switch): -1; higher = weaker reporter binding
Conditions: Eterna round: R98
Description: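 RNA-MaP: designed FMN/MS2 RNA switches (84 nt design region) are transcribed on-chip within common flanks and titrated with SNAP-549-labelled MS2 coat protein (about 1-3000 nM) in 100 mM Tris pH 7.5, 80 mM KCl, 4 mM MgCl2, without or with 200 uM FMN. Median apparent KD per design; activation ratio = KD,OFF / KD,ON.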

Sequence | apparent KD of MS2 coat protein (input ligand: FMN 200 uM) | apparent KD of MS2 coat protein (input ligand: none)
CCGGGCCCGGGAGGAUAUACAUGAGGAUCACCCAUGUAUUCUCGGCCCGGCGAAAGCCGGGCCAUGUAGAAGGCCCGGGCCCGG [high melting point] | 103 nM | 24.3 nM
GCGGGAUGAGUCGUUGGUUCACAUGAGGAUCACCCAUGUAGGGAGGAUAUGCAUCUGGUCCCGGAGCAGAAGGCCCUGCAUCGA [Raedxea] | 1540 nM | 555 nM
GUCAGGAAUGUAGGAUAUCGUCAGGAAUACUGGCGAGAAGGACAUGAGGAUCACCCAUGUAAAAUGAAAGAUAAUAAACCUGGC [Exclsuion NG 1/2-C1] | 31.9 nM | 18.7 nM
UCGAACGGAAACAAAGUCAAUAGACAUGAGGAUCACCCAUGUAAGGAUAUGCCUACUAAAAGUAGGCAGAAGGUACGCGUUCGA [Contusion 5 - Jieux - Exclusion NG 3] | 27.2 nM | 18.3 nM
